Common to all, as to assay type: physicochemical
A short description of series [1]: Dispersion of hydrophilic species/amphiphile array in hydrophobic solvent: visual optical clarity.
Series [2] in a line: Turbidity of oil preparations by optical density / absorbance (plate reader). The conditions noted are these: Example 9: egg lysophosphatidyl choline, oleic acid, 4.6 mg insulin/g. The method, then: It is very much preferred that the preparations of the invention are optically clear and this can be monitored by measuring turbidity at visible wave lengths and, in some cases, by checking for sedimentation over a period of time. […]
Aprotinin was dissolved in distilled water at a concentration of 10 mg/ml. Hexadecyl phosphocholine (HDPoC) was dissolved in distilled water at a concentration of 100 mg/ml. To aliquots of 100 μl of aprotinin solution, volumes of HDPOC were added ranging from 0 through to 10, 20, 30, 40 to 50 μl. The mixtures were frozen at −20° C. and lyophilised overnight. The following day 100 μl of oleic acid was added to each sample and shaken for one hour at room temperature on an orbital shaker.
Octyl glucoside was dissolved in distilled water and dispensed into wells of a microplate to give the following amounts of amphiphile per well: −0, 0.5, 1.0, 1.5, 2.0, 2.5, 5, 7.5 and 10 mg. Aprotinin was dissolved in distilled water at a concentration of 5 mg/ml, and 100 μl was dispensed into each well above, containing 0.5 mg of protein. The plate was mixed well, frozen at −20° C. and lyophilised overnight. The following day, […] of oleic acid was added to each well. The plate was shaken at room temperature, and optical density measurements at 550 nm taken at intervals with a plate reader. A low absorbance value indicates a low level of scattering, and corresponds to effective dispersion of protein in oil.
The results, expressed in terms of optical density as a function of octyl glucoside concentration (at constant protein concentration) at different times after addition of oleic acid are given in the table and accompanying graph.

Series [3] in a line: Stability of oil preparations on storage, standing or freeze-thawing (appearance). On the procedure:
Egg PC SUVs at a concentration of 100 mg PC/ml were prepared as in Example 1. An insulin solution at 10 mg/ml was made by preparing an aqueous suspension at a slightly higher concentration, adding glacial acetic acid at a rate of 20 mg/g of insulin used, and then adding sufficient water to give the desired insulin concentration. After mixing and standing for 15 minutes, a clear solution was formed. To 1.25 ml of SUVs in a test-tube, were added 1.25 ml of insulin solution, and the mixture shell-frozen and freeze-dried overnight. The following day, 0.252 g of oleic acid was added and the tube vortexed to completely “wet” the lyophilate.
The HRPO solution was divided into two -equal portions, and one portion was put through five freeze-thaw cycles by cooling repeatedly to +4° C., solidifying the oleic acid each time, before bringing it back to room temperature.
The same procedure employed as described in Example 19, except that bovine brain sphingomyelin was used instead of phosphatidyl choline, resulting in proportions by weight of insulin/sphingomyelin/oleic acid of 5/50/200.

The nature of series [4]: Centrifugation of melanin dispersions in M818.
A short description of series [5]: Optical density at 600 nm of melanin solutions in oil (M818) and water. The note with it: for Measurement at 600 nm, Water: Example 26: melanin alone in distilled water. On the procedure: 10 mg of melanin were added to 1 ml of distilled water, and dissolved after raising pH with ammonium hydroxide solution. 50 ul of this concentrated solution was diluted 20-fold by addition to 950 ul of distilled water. To two rows of seven wells of a microplate 0, 12.5, 25, 37.5, and 50 ul of the dilute solution were added, and 12.5 and 25 ul of the concentrated solution. To each well of one row was added 100 ul of a soya phosphatidyl choline dispersion prepared by sonication for ten minutes with cooling at a concentration of 100 mg/ml. The other row was left untouched, the plate was mixed well, frozen at −20° C. and lyophilised overnight. The following day, 100 ul of M818 were added to wells in the row containing melanin/lipid complex, and 100 ul of distilled water was added to the wells in the row containing melanin alone. […] It will be seen from the table and accompanying graph that Beer-Lambert's law is obeyed over this concentration range (ie the response curve is linear), and that the behaviour of melanin is identical for both oil and aqueous solutions.

With insulin, in series [1] (Example 5: egg PC SUVs, 0.252 g oleic acid, left overnight), the appearance of preparation result is on record as “yellow, optically clear dispersion displaying strong opalescence”. For the same substance, the appearance of dispersion entry in series [1] (Example 6: 5 mg soy PC, 0.47 mg protein, 100 mg diolein, initially granular) is given as “became clear after 2 hours”; in series [1] (Example 8: DPPC SUVs 15 mg, 1.4 mg protein, 300 mg oleic acid), “clear”; in series [1] (Example 9: egg lysophosphatidyl choline micelles, 0.3 g oleic acid), “clear dispersion”; in series [1] (Example 10: soy PC SUVs, 300 mg Miglyol 810, following day), “slightly opalescent”; in series [1] (Example 10: soy PC SUVs, 300 mg Miglyol 812, following day), “completely clear”; in series [1] (Example 10: soy PC SUVs, 300 mg Miglyol 818, following day), “completely clear”. For the same substance, the appearance of dispersion result in series [1] (Example 10: soy PC SUVs, 300 mg Miglyol 829, following day) is “turbid gel”; in series [1] (Example 10: soy PC SUVs, 300 mg Miglyol 840, following day), “completely clear”; in series [1] (Example 36: AOT amphiphile, 200 mg octanol, standing overnight), “clear after standing overnight”. For the same substance, the “insulin content of clear dispersion” value in series [1] (Example 9: egg lysophosphatidyl choline, oleic acid) was 4.6 mg insulin/g of oleic acid. In addition, the appearance of solution entry in series [1] (Example 20: bovine brain sphingomyelin, insulin/sphingomyelin/oleic acid 5/50/200, one hour mixing) is recorded as “completely clear solution”. Besides, the appearance of dispersions entry in series [1] (Example 33: soy PC SUV, melts of tripalmitin, triheptadecanoin or tristearin with 2% oleic acid, 78 C, 1 to 2 hours) is “almost clear dispersions”. In series [2], the “absorbance at 600 nm” value is on record as 0.023. Further, the “change in appearance (eg sedimentation) on storage” value in series [3] (Example 5: 7 weeks storage under nitrogen in a sealed tube at room temperature) is “no apparent change in the appearance”. Besides, the appearance on standing result in series [3] (Example 20: sphingomyelin/oleic acid, room temperature for several days) is “solid opaque gel”. Further, the “appearance of gel on warming” value in series [3] (Example 20: sphingomyelin/oleic acid, warming to 37° C.) was “clear solution again”.

melanin: the “behaviour of dispersion on centrifugation” value is reported as “black dispersion, which sedimented out after centrifugation giving a clear supernatant” in series [4] (Example 26: dispersed in M818 by sonication in the absence of phosphatidyl choline) and “No such changes were observed after centrifugation” in series [4] (Example 26: melanin/lipid complex dispersed in M818). The “Measurement at 600 nm, Water” value in series [5] (Concn 0.0625 mg/ml) worked out at 0.072; in series [5] (Concn 0.125 mg/ml) it was 0.159; in series [5] (Concn 0.187 mg/ml), 0.23; in series [5] (Concn 0.25 mg/ml), 0.333; in series [5] (Concn 1.25 mg/ml), 1.259; in series [5] (Concn 2.5 mg/ml) it was 2.653. For the same substance, the “Measurement at 600 nm, Miglyol” value in series [5] (Example 26: melanin/soya PC complex in M818, Concn 0.0625 mg/ml) is reported as 0.078; in series [5] (Example 26: melanin/soya PC complex in M818, Concn 0.125 mg/ml), 0.157; in series [5] (Example 26: melanin/soya PC complex in M818, Concn 0.187 mg/ml), 0.23; in series [5] (Example 26: melanin/soya PC complex in M818, Concn 0.25 mg/ml), 0.306; in series [5] (Example 26: melanin/soya PC complex in M818, Concn 1.25 mg/ml), 1.565; in series [5] (Example 26: melanin/soya PC complex in M818, Concn 2.5 mg/ml), 2.857.

The values above are taken from patent publication US6368619B1, “Hydrophobic preparations of hydrophilic species and process for their preparation” (Provalis UK Limited, priority 1993, dated 2002).
